# Results published in patent US20230057602A1, “METHODS OF TREATMENT WITH ANTIBODIES AGAINST BCMA AND CD3” (BRISTOL-MYERS SQUIBB COMPANY, priority 2019, published 2023).
# Tests used:
# [1] = test system: MM1S BCMA-expressing myeloma cell line; assay: CC-93269-induced redirected lysis of MM1S; assay type: cell-based, human; conditions: E:T 1:1, 72 hours, 3 donors
# Description: Four BCMA-expressing tumour cell lines purchased from ATCC (Manassa, Va.) (Multiple Myeloma cell lines: BCMA high-H-929 (catalog number CRL-9068), BCMA mid-SKMM2 and -MM.1S (catalog number ACC-430) and BCMA low-KMS12-PE (catalog number ACC-606)) were co-cultured with T-cells from 3 independent healthy donors (Bloodworks Northwest, Seattle, Wash.), at a E:T ratio of 1:1, i.e. 1 T cell: 1 myeloma cell. […]; 0.033-2.6 nM) for 72 hours.
# FIG. 7 illustrates CC-93269-induced redirected lysis of BCMA+ tumour cell lines following co-culture with donor T cells from one healthy donor; results from all 3 independent healthy donors are summarised in Table 19. In 96-well round bottom plates and a final volume of 100 μL, 1×10^4 CellTrace Violet-labeled T-cells were plated with 1×10^4 CellTrace CFSE-labeled target cells, in the presence of varying concentrations of CC-93269 in combination with varying concentrations of dexamethasone (7-point dose response). The cocultures were incubated at 37° C. with 5% CO2. […] One-hundred percent viability was determined by the absolute cell count of live tumour cells at no addition of CC-93269 or dexamethasone; an absolute cell count of 0 live cells was used to define 100% killing of tumour cells. […] The IC50 values were calculated using non-linear regression analysis, sigmoidal dose-response using GraphPad Prism (version 5.0) software.
# [2] = test system: Relapsed/Refractory Multiple Myeloma (RRMM) patients; assay: Clinical study of CC-93269 in RRMM: safety, cytokine release syndrome (CRS); assay type: in vivo, human
# Description: CC-93269 (42-TCBcv), a bispecific antibody that specifically binds to BCMA bivalently and CD3 monovalently, was administered intravenously over 2 hours on Days 1, 8, 15, and 22 for Cycles 1-3; Days 1 and 15 for Cycles 4-6; and on Day 1 for Cycle 7 and beyond, all in 28-day cycles. […] 5 patients received a starting dose of 6 mg on Cycle 1 Day 1, followed by a dose of 10 mg on Cycle 1 Day 8 and thereafter (Cohort 7, n=5).
# CRS prophylaxis was implemented with dexamethasone (up to 20 mg intravenous or equivalent) for the first dose and dose increases in patients receiving ≥6 mg. In Cohorts 1-4, dexamethasone was not used as a premedication.
# Patients were monitored for clinical signs and symptoms associated with CRS (Lee, 2014) and CRS events were graded and treated according to the common CTCAE CRS grading scale (Lee, 2015).
# CC-93269 was administered intravenously over 2 hours on Days 1, 8, 15, and 22 for Cycles 1-3; Days 1 and 15 for Cycles 4-6; and on Day 1 for Cycle 7 and beyond, all in 28-day cycles. Patients received a starting dose of 3 mg on Cycle 1 Day 1, followed by a dose of 6 mg on Cycle 1 Day 8 and thereafter.
# Cohorts 8 (n=6) and 9 (n=5) differ in baseline multiple myeloma tumor burden based on percentage of bone marrow plasma cells and/or the presence of extramedullary disease (Cohort 8 including subjects with ≤50% bone marrow plasma cells [biopsy or aspirate] and ≤5 extramedullary lesions and Cohort 9 including subjects with >50% bone marrow plasma cells or >5 extramedullary lesions). Patients with lower (Cohort 8) and higher (Cohort 9) tumour burden were enrolled to evaluate possible differences in tolerability based on the rationale that the only patient of Cohorts 1-7 to experience Grade ≥3 CRS had extensive extramedullary disease at enrolment.
# In Cohorts 8 and 9, all patients received dexamethasone (up to 20 mg intravenous or equivalent) as prophylaxis for CRS prior to the first dose, the second dose, any dose increase, and after dose interruption of more than 2 weeks occurring during Cycles 1 to 6. Patients were monitored, graded, and treated for CRS in the same way as for Cohorts 1-7 in Example 1.
substance,measurement,setting,value
"CC-93269: bispecific antibody that specifically binds to BCMA bivalently and CD3 monovalently; SEQ ID NO:48, 55, 56, 57 (2×)","% live tumour cells, Mean",[1]; 1 μM Dex co-treatment,0.98%
same,"% live tumour cells, Mean",[1]; DMSO,1.5%
same,patients who experienced CRS,"[2]; 11 patients, 3/6 mg dose regimen (Cohorts 8 and 9)",54.5%
same,subjects with Grade 2 or higher CRS events,[2]; 11 subjects receiving 3/6 mg,18.2%
same,subjects with Grade 2 or higher CRS events,"[2]; 12 subjects, 6 mg, 6/10 mg, or 10 mg doses",50%
same,subjects who experienced CRS,"[2]; 12 subjects, 6 mg, 6/10 mg, or 10 mg doses (Cohorts 5 to 7)",100%
same,"CRS, maximum Grade","[2]; Cohort 6, consecutive doses of 6 mg, all CRS events in Cycle 1",2
same,"CRS frequency or severity, higher versus lower tumor burden",[2]; Cohort 9 compared with Cohort 8,no increase observed
same,Grade 3 or higher CRS events,[2]; Cohorts 8 and 9,no Grade 3 or higher CRS events were reported
same,severity of CRS in comparison with Cohorts 5 to 7,[2]; Cohorts 8 and 9,generally decreased
same,CRS events of Grade 1,"[2]; Cohorts 8 and 9, 8 events",75%
same,CRS events of Grade 2,"[2]; Cohorts 8 and 9, 8 events",25%
same,outcome of CRS events,"[2]; Cohorts 8 and 9, tocilizumab and/or dexamethasone",resolved with standard treatments
same,death on study,"[2]; One patient, 6 mg first dose and 10 mg on Cycle 1 Day 8 (Cohort 7)",died on the study in the setting of CRS
same,CRS events lasting more than 3 days,[2]; all cohorts 1 to 9,4 of 36
same,CRS events occurring with the first dose on C1D1,[2]; all cohorts 1 to 9,73.3%
same,CRS events occurring with the second dose on C1D8,[2]; all cohorts 1 to 9,23.3%
same,"duration of a CRS event, range",[2]; all cohorts 1 to 9,1 to 7 days
same,maximum time to first onset of CRS,[2]; all cohorts 1 to 9,3 days
same,median duration of a CRS event,[2]; all cohorts 1 to 9,2 days
same,median time to first onset of CRS,[2]; all cohorts 1 to 9,1 days
same,CRS events occurring with subsequent doses,"[2]; all cohorts 1 to 9, limited to Grade ≤2 events",2.7%
same,tolerability,"[2]; consecutive doses of ≤3 mg, no CRS prophylactic",well-tolerated
same,"Cytokine release syndrome, maximum Grade",[2]; fixed dose of ≤3 mg,1
same,CRS Grade after the first dose,"[2]; one patient of Cohort 7, Cycle 1 Day 1, 6 mg",3
same,CRS Grade after the second dose,"[2]; same patient of Cohort 7, Cycle 1 Day 8, 10 mg",5
